Results as given in patent US20220064294A1 (ARCUS BIOSCIENCES, published 2022).

Columns and labels:
[1] = biological target: T1, human TIGIT, full length, on cells (human, UniProt Q495A1 22-244); test: cell-based or functional assay
T1 sequence: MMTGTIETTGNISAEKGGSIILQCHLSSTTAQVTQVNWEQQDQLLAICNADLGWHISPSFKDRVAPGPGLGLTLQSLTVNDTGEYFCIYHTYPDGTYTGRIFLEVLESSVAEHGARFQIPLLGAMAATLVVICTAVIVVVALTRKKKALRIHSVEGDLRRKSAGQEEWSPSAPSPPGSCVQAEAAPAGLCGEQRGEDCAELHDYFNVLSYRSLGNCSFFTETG

[2] = biological target: T1, human TIGIT, full length, on cells; test: flow cytometry, inhibition of hCD155-Fc binding to CHO-hTIGIT cells
Method: The activity of Hu24F8.1-IgG1.AA and Hu24F8.2-IgG1.AA to block the interaction of TIGIT with CD155 was analyzed by flow cytometry using CHO cells stably overexpressing human TIGIT (CHO-hTIGIT) and human CD155-Fc fusion recombinant soluble protein (hCD155-Fc), as described in Example 1. […] The IC₅₀ for Hu24F8.1-IgG1.AA to block the TIGIT-CD155 interaction was 0.68 nM, and for Hu24F8.2-IgG1.AA it was 0.67 nM.

cTIGIT-His = biological target: T2, cTIGIT-His (cynomolgus monkey); test: SPR, Biacore T200, antibody captured on anti-human IgG chip, cTIGIT-His as analyte
T2 construct: also called His-tagged cyno TIGIT protein extracellular domain; soluble cTIGIT-His
T2 chain: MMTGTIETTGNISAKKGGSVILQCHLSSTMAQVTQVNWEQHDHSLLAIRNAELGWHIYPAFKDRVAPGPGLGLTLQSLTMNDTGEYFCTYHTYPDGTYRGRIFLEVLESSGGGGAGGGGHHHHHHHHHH
Method: (§1) The purified, full-length antibodies Hu24F8.1-IgG1.AA (containing VH1+VL2) and Hu24F8.2-IgG1.AA (containing VH2+VL2), together with the full-length chimera antibody of 24F8 mouse VH+VL and human IgG1/kappa constant domains (Ch24F8), were analyzed by SPR using a Biacore T200 instrument with antibody capture using an anti-human IgG coated chip and soluble hTIGIT-His or cTIGIT-His as the analyte.

hTIGIT-His = biological target: T3, hTIGIT-His (human); test: SPR, Biacore T200, antibody captured on anti-human IgG chip, hTIGIT-His as analyte
T3 construct: also called His-tagged human TIGIT protein extracellular domain; soluble hTIGIT-His
T3 chain: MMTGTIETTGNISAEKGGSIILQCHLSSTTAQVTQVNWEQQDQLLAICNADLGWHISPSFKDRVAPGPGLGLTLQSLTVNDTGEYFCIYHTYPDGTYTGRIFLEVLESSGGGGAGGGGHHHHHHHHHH
Method: as §1

[3] = biological target: T4, cynomolgus monkey TIGIT, full length, on cells (cynomolgus monkey); test: flow cytometry on stable CHO-K1 cells expressing cyno TIGIT (clone C10); cyno TIGIT, CHO-K1 clone C10, n=6
T4 construct: Whole entry of 312 amino acids; also called cyno TIGIT; cTIGIT
Method: (§2) Binding of antibodies Hu24F8.1-IgG1.AA and Hu24F8.2-IgG1.AA to TIGIT expressed on cell surface was examined by flow cytometry. Cells expressing TIGIT on cell surface were collected and incubated in 100 μL of HBSS Buffer in the presence (or absence) of various concentrations of antibody for 1 hr at 4° C. After washing with HBSS, antibody binding on cells was detected with 2 μg/mL of Alexa488-labeled goat anti-human IgG antibody (ThermoFisher Scientific, Cat #A-11013) for 30 min at 4° C. Cells were then washed and resuspended in PBS and subjected to flow cytometry using a Attune NxT flow cytometer (ThermoFisher Scientific, Waltham, Mass.). GeoMean of fluorescence intensity was obtained for the whole single cell population, and for transient transfection, non-transfected cells were used to gate for the positive binding cell population to obtain percent of positive cells. Data was calculated by GraphPad Prism using the standard 4-parameter curve fitting.
(§3) Stable CHO-K1 cell lines expressing human TIGIT (clone 2A7) and cyno TIGIT (clone C10) were used to test Hu24F8.1-IgG1.AA and Hu24F8.2-IgG1.AA for their binding to human TIGIT and cyno TIGIT, respectively, as described above. […] Hu24F8.2-IgG1.AA bound to human TIGIT with an EC₅₀ 0.29±0.15 nM (n=8) (FIG. 3A) and to cyno TIGIT with an EC₅₀ of 0.35±0.16 nM (n=6) (FIG. 3B).

[4] = biological target: T1, human TIGIT, full length, on cells; test: flow cytometry on stable CHO-K1 cells expressing human TIGIT (clone 2A7); human TIGIT, CHO-K1 clone 2A7, n=8
Method: as §2, §3

- EC50 of luciferase reporter activity, TIGIT/CD155 Blockade Bioassay (Jurkat cells overexpressing TIGIT with CD155 aAPC/CHO-K1 cells) [1]: 3.35 nM
- IC50 [2]: 0.68 nM
- Kd (cTIGIT-His): 1.74 nM
- koff (cTIGIT-His): 0.0014 s⁻¹
- kon (cTIGIT-His): 806000 M⁻¹ s⁻¹
- Kd (hTIGIT-His): 0.144 nM
- koff (hTIGIT-His): 0.000145 s⁻¹
- kon (hTIGIT-His): 1.01e+06 M⁻¹ s⁻¹
- EC50 [3]: 0.237 nM
- EC50 [4]: 0.447 nM
B1: Hu24F8.1-IgG1.AA (antibody, V domains shown)
VH: QVQLQESGPGLVKPSETLSLTCAVYGYSITSGYSWHWIRQPPGKGLEWIGYVHYSGSTNYNPSLKSRVTISVDTSKNQFSLKLSSVTAADTAVYYCARMDYGNYGGAMDYWGQGTLVTVSS
VL: EIVMTQSPATLSVSPGERATLSCKASQDVRTAVAWYQQKPGQAPRLLIYSASYRYTGIPARFSGSGSGTEFTLTISSLQSEDFAVYYCQQYYSTQWTFGGGTKVEIKR
notes: IgG1/kappa; also called Hu24F8.1 (VH1+VL2), IgG1/kappa with L234A/L235A
